Results from ChEMBL document CHEMBL2074348, “Human neurons express the polyspecific cation transporter hOCT2, which translocates monoamine neurotransmitters, amantadine, and memantine” (Mol Pharmacol, 1998).
“And” between values parts separate entries of the source, which are not always exact repeats. Equal values may be shown once.

Legend:
[1] = target: T1, Solute carrier family 22 member 2 (Homo sapiens, UniProt O15244); assay: TP_TRANSPORTER: uptake in OCT2-expressing HEK293 cells; format: functional, cell-based
T1 sequence (O15244 whole entry): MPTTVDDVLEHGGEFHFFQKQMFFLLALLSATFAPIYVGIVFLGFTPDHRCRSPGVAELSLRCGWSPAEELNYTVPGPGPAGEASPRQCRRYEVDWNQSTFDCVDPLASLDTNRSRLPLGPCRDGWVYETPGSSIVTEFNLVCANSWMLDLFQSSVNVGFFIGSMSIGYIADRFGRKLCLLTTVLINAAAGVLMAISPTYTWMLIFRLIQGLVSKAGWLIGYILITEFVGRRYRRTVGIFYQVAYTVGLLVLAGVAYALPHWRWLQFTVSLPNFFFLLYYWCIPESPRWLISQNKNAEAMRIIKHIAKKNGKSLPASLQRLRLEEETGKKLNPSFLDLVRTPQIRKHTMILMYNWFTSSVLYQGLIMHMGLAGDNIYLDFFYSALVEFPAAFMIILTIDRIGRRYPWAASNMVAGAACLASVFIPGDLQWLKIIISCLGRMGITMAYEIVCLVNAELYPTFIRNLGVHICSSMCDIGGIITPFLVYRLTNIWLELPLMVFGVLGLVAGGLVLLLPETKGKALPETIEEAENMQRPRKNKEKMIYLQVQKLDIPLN

[2] = target: T1, Solute carrier family 22 member 2; assay: TP_TRANSPORTER: inhibition of Dopamine uptake (Dopamine: 200 uM) in Xenopus laevis oocytes; format: functional, cell-based, Oocyte
[3] = substrate: NCCc1ccc(O)c(O)c1; assay: cells, lysate or membranes named
[4] = substrate: NCCc1c[nH]cn1; assay: cells, lysate or membranes named
[5] = substrate: NC12CC3CC(CC(C3)C1)C2; assay: (§1) TP_TRANSPORTER: uptake (electrogenesis) in Xenopus laevis oocytes; format: functional, cell-based, Oocyte
[6] = substrate: CC12CC3CC(C)(C1)CC(N)(C3)C2; assay: as §1; format: functional, cell-based, Oocyte
[7] = substrate: NCCc1c[nH]c2ccc(O)cc12; assay: (§2) TP_TRANSPORTER: uptake in Xenopus laevis oocytes; format: functional, cell-based, Oocyte
[8] = substrate: NC[C@H](O)c1ccc(O)c(O)c1; assay: as §2; format: functional, cell-based, Oocyte

Q: How did the Km [1] turn out when `C[n+]1ccc(-c2ccccc2)cc1` was run?
A: Its Km is 16 µM.

Q: `NC12CC3CC(CC(C3)C1)C2` [AMANTADINE] was tested. Which IC50 [2] did it give?
A: Its IC50 is 23 µM.

B1: Solute carrier family 22 member 2 (Homo sapiens) (protein)
chain: MPTTVDDVLEHGGEFHFFQKQMFFLLALLSATFAPIYVGIVFLGFTPDHRCRSPGVAELSLRCGWSPAEELNYTVPGPGPAGEASPRQCRRYEVDWNQSTFDCVDPLASLDTNRSRLPLGPCRDGWVYETPGSSIVTEFNLVCANSWMLDLFQSSVNVGFFIGSMSIGYIADRFGRKLCLLTTVLINAAAGVLMAISPTYTWMLIFRLIQGLVSKAGWLIGYILITEFVGRRYRRTVGIFYQVAYTVGLLVLAGVAYALPHWRWLQFTVSLPNFFFLLYYWCIPESPRWLISQNKNAEAMRIIKHIAKKNGKSLPASLQRLRLEEETGKKLNPSFLDLVRTPQIRKHTMILMYNWFTSSVLYQGLIMHMGLAGDNIYLDFFYSALVEFPAAFMIILTIDRIGRRYPWAASNMVAGAACLASVFIPGDLQWLKIIISCLGRMGITMAYEIVCLVNAELYPTFIRNLGVHICSSMCDIGGIITPFLVYRLTNIWLELPLMVFGVLGLVAGGLVLLLPETKGKALPETIEEAENMQRPRKNKEKMIYLQVQKLDIPLN
Q: Which results are given for B1?
A: Km [3]: 330 µM and 390 µM and 520 µM; Km [4]: 1300 µM; Km [5]: 27 µM; Km [6]: 34 µM; Km [7]: 80 µM; Km [8]: 1900 µM
